Positions count from the first letter of the chain named.

T1: GST-PIF3-Flag (Arabidopsis thaliana, UniProt O80536 1-524)
T1 sequence: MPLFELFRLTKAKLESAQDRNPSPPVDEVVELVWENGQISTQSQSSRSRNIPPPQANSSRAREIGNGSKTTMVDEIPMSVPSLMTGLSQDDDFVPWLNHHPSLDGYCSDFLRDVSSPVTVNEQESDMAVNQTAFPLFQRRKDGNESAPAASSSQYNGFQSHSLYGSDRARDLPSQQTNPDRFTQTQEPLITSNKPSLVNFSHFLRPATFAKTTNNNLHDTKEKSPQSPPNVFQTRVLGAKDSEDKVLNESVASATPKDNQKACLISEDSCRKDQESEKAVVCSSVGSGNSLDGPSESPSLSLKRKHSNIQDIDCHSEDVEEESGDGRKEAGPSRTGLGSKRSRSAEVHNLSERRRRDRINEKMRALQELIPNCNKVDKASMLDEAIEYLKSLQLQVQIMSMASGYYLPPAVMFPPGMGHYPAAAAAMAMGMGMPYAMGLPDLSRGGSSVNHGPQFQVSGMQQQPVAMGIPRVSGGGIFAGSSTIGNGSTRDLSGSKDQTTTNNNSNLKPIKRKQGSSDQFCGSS

B1: RGA1 mut3 (2nd G-box) (dsDNA)
DNA 1: GACCCATTAACACGTGGATCCATCACGGGCTGTCAGTTT
DNA 2: AAACTGACAGCCCGTGATGGATCCACGTGTTAATGGGTC
B2: RGA1 mut2 (1st G-box) (dsDNA)
DNA 1: B1 DNA 1 with T15G, G28T
DNA 2: B1 DNA 2 with C12A, A25C
B3: HB2 mut5 (PBE-box) (dsDNA)
DNA 1: GGGTCAGATCCACGTGAAGTTCCCATGCTTTCCATGC
DNA 2: GCATGGAAAGCATGGGAACTTCACGTGGATCTGACCC
B4: PIL1b mut2 (1st G-box) (dsDNA)
DNA 1: ACGCGGCATTCACGGGAAGTGCACGTGAACTTGGCCA
DNA 2: TGGCCAAGTTCACGTGCACTTCCCGTGAATGCCGCGT
B5: PIL1b mut3 (2nd G-box) (dsDNA)
DNA 1: B4 DNA 1 with G15T, T26G
DNA 2: B4 DNA 2 with A12C, C23A
B6: HB2 mut4 (G-box and PBE-box) (dsDNA)
DNA 1: B3 DNA 1 with T15G
DNA 2: B3 DNA 2 with A23C
B7: HB2 mut2 (G-box) (dsDNA)
DNA 1: B3 DNA 1 with T15G, C23A
DNA 2: B3 DNA 2 with G15T, A23C
B8: IBH1 WT (dsDNA)
DNA 1: AGGCCATAGCCATGTGCCTTCATGTGGTGGTTGGCC
DNA 2: GGCCAACCACCACATGAAGGCACATGGCTATGGCCT
B9: AT4G30410 (bHLH159) WT (dsDNA)
DNA 1: ATAGGAGAAGCACATGCATGCACATGCTACGAATGG
DNA 2: CCATTCGTAGCATGTGCATGCATGTGCTTCTCCTAT
B10: RGA1 WT (dsDNA)
DNA 1: B1 DNA 1 with G28T
DNA 2: B1 DNA 2 with C12A
B11: PHYB WT (dsDNA)
DNA 1: ACCATTAGCCCACGTGATCTTGGGCC
DNA 2: GGCCCAAGATCACGTGGGCTAATGGT
B12: IAA2 WT (dsDNA)
DNA 1: TGAGGCCGCCCATGTGGACACGACTC
DNA 2: GAGTCGTGTCCACATGGGCGGCCTCA
B13: ATHB-2 (HB2) WT (dsDNA)
DNA 1: B3 DNA 1 with C23A
DNA 2: B3 DNA 2 with G15T
B14: PIL1b WT (dsDNA)
DNA 1: B4 DNA 1 with G15T
DNA 2: B4 DNA 2 with C23A

One data set has as its target T1, GST-PIF3-Flag. Nature of the data set: competition; EMSA; competes similar to WT; DPI-ELISA: TBS-T (20 mM Tris-HCl pH 7.5, 180 mM NaCl, 0.1% Tween 20), 5% milk block, 2 pmol probe/well, 100 ng protein, 1 h, competitor 2/10/50 pmol; EMSA: 100. The conditions noted are these: protein: recombinant, tags: N-term GST, chain copies: 2, blunt. A general note: In EMSA bound probe runs differently from free probe, usually more slowly.
As to B1, the binding result was “binds”.

With B2, the binding result was “binds”.

In the case of B3, the binding result was “binds”.

For B4, the binding result is recorded as “binds”.

In the case of B5, the binding result was “binds”.

The target in a further data set is T1, GST-PIF3-Flag. Kind of data set: competition; EMSA; no competition; DPI-ELISA: TBS-T (20 mM Tris-HCl pH 7.5, 180 mM NaCl, 0.1% Tween 20), 5% milk block, 2 pmol probe/well, 100 ng protein, 1 h, competitor 2/10/50 pmol; EMSA: 100. The note with it: protein: recombinant, tags: N-term GST, chain copies: 2, blunt.
B6: the binding result is listed as “no binding”.

With B7, the binding result is “no binding”.

The next data set addresses T1, GST-PIF3-Flag. Kind of data set: DPI-ELISA; DPI-ELISA: TBS-T (20 mM Tris-HCl pH 7.5, 180 mM NaCl, 0.1% Tween 20), 5% milk block, 2 pmol probe/well, 100 ng protein, 1 h, competitor 2/10/50 pmol; EMSA: 100. The note with it: protein: recombinant, tags: N-term GST, chain copies: 2, label: 5' biotin on one strand (probe), blunt.
Regarding B8, the binding result was “binds”.

As to B9, the binding result is “binds”.

Consider B10, for which the binding result is on record as “binds”.

In the case of B11, the binding result is “binds”.

Regarding B12, the binding result was “binds”.

Another data set deals with T1, GST-PIF3-Flag. Kind of data set: EMSA; DPI-ELISA: TBS-T (20 mM Tris-HCl pH 7.5, 180 mM NaCl, 0.1% Tween 20), 5% milk block, 2 pmol probe/well, 100 ng protein, 1 h, competitor 2/10/50 pmol; EMSA: 100. The note with it: protein: recombinant, tags: N-term GST, chain copies: 2, label: 5' biotin on one strand (probe), blunt.
Take B13: the binding result was “binds”.

B14: the binding result is given as “binds”.

The values above are taken from article PMC3561105, “A Quartet of PIF bHLH Factors Provides a Transcriptionally Centered Signaling Hub That Regulates Seedling Morphogenesis through Differential Expression-Patterning of Shared Target Genes in Arabidopsis”.
